Columns and labels:
[1] = system: Human mesenchymal stromal/stem adipose tissue cells (ATSC); assay: Proliferation of adipose tissue stem cells (ATSC), [H3]-thymidine incorporation; assay type: cell-based; conditions: for Cell proliferation (cpm × 103): 24 h
Text: Human mesenchymal stromal/stem adipose tissue cells (ATSC) were isolated either from liposuction aspirates or from products of the fat deposit removed during the cosmetic surgery. The tissue was mechanically split to the fragments of several cubic millimeters. A suspension of tissue was mixed with type I Collagenase (200 U/ml) and Dispase (30 U/ml) (Sigma) in solution of 50% DMEM (Sigma, D-5523), 50% F12 (Sigma, N-6760), 1% BSA (Sigma), /100 U/ml penicillin and 100 U/ml ampicilline in 1:1 v/v and incubated for 1 hr at 37° C. to with mixing, following by filtering through 40 μm membrane (BD Falcon). The suspension was centrifuged 5 min at 200 g, upper layer was removed, and pellet consisting of separate non-adipose cells was treated by erythrocyte lysis buffer (154 mM NH4Cl, 10 mM KHCO3, 0.1 mM EDTA) during 5 min at 37° C., following by 5 min centrifugation at 300 g. Cell pellet was resuspended in DMEM/10% FBS. Resulting cells were cultured in the same medium in plastic flasks in CO2 incubator (37° C., 5% CO2). When reaching confluence, the cells were passaged by treatment the cell monolayer with 0.25% trypsin/0.02% EDTA. For the purpose of long-time storage, the cells were frozen in the culture medium supplemented by 15-20% FBS and 10% DMSO. Adipose cells were cultivated in DMEM/F12 medium with the addition 10% FBS 0.1% ECGF on 60 mm Petri dishes at 37° C. and 5% CO2. For the passages 0.25% trypsin/0.02% EDTA. solution was used. For the purpose of long-time storage, the cells were frozen in the culture medium supplemented by 15-20% FBS and 10% DMSO. Adipose tissue stem cells (ATSC) were cultivated in DMEM/F12 medium with the addition 10% FBS 0.1% ECGF on 60 mm Petri dishes at 37° C. and 5% CO2. For the passages 0.25% trypsin/0.02% EDTA solution was used. For the purpose of long-time storage, the cells were frozen in the culture medium supplemented by 15-20% FBS and 10% DMSO.
Human donor ATSC were isolated and cultivated as described above, the cells from 2-4 passage were taken in the study. ADSC (3×10^4) were plated in flat-bottom 96-well plates (Costar, USA) in complete medium with 10% FCS, after 18 h the medium was changed onto the medium with 5% human sera and cells were treated with increasing amounts of rhAFP (0-500 μg/ml) for 24 h. The direct effect of rhAFP on proliferation of ATSC was measured by [H^3]-thymidine incorporation. For the last 4 h 1 μCi of methyl-[H^3]-thymidine was added to the cultures.

[2] = system: cells of B-cellular lymphoma Raji; assay: Nude line mice implanted with Raji lymphoma cells, tumor size; assay type: in vivo; conditions: intraperitoneally daily for 20 days, 10 animals, listed as AFP
Text: Anticancer preparations on the base of rAFP and of modified forms thereof may be used for inhibition of the growth of malignant neoplasms, such as primary or metastatic cancer of the liver, blood cancer (leucosis, myeloblastoma, lymphoma), breast cancer, prostate cancer. In order to determine the sensitivity of tumor cells to rAFP, it is possible to use different methods both in vitro and also in vivo. The method of determining activity in vitro is described in the preceding example 8. In order to determine the oncosuppressive action of preparations on the base of AFP in vivo, animal models may be used, for example Nude mice with subcutaneously or intraperitoneally implanted human lines of cancer cells, such as Raji, HepG2, LnCap, MCF-7 and others. For example, cells of B-cellular lymphoma Raji were administered subcutaneously in an amount of 1-5×10^6 per mouse. Administration of the rAFP and derivatives thereof was begun 7 days […] implantation of tumor cells intraperioneally or intravenously in an amount of 1-10 mg/kg. The physiological buffered solution (PBS) was used as a control. The size of the tumor was evaluated by daily measurements with the aid of a micrometer.

B1: rhAFP: recombinant human alpha-fetoprotein secreted by yeast Saccharomyces cerevisiae YBS723/pKX, glycosylated, mature human AFP sequence SEQ ID NO:2 (protein, listed as Homo sapiens)
chain: TLHRNEYGIASILDSYQCTAEISLADLATIFFAQFVQEATYKEVSKMVKDALTAIEKPTGDEQSSGCLENQLPAFLEELCHEKEILEKYGHSDCCSQSEEGRHNCFLAHKKPTPASIPLFQVPEPVTSCEAYEEDRETFMNKFIYEIARRHPFLYAPTILLWAARYDKIIPSCCKAENAVECFQTKAATVTKELRESSLLNQHACAVMKNFGTRTFQAITVTKLSQKFTKVNFTEIQKLVLDVAHVHEHCCRGDVLDCLQDGEKIMSYICSQQDTLSNKITECCKLTTLERGQCIIHAENDEKPEGLSPNLNRFLGDRDFNQFSSGEKNIFLASFVHEYSRRHPQLAVSVILRVAKGYQELLEKCFQTENPLECQDKGEEELQKYIQESQALAKRSCGLFQKLGEYYLQNAFLVAYTKKAPQLTSSELMAITRKMAATAATCCQLSEDKLLACGEGAADIIIGHLCIRHEMTPVNPGVGQCCTSSYANRRPCFSSLVVDETYVPPAFSDDKFIFHKDLCQAQGVALQTMKQEFLINLVKQKPQITEEQLEAVIADFSGLLEKCCQGQEQEVCFAEEGQKLISKTRAALGV
modifications: yeast glycosylation
Q: B1 was tested. Which “Maximum effect on proliferation of ATSC” value ([1]; 300 μg/ml of rhAFP, compared to untreated control) did it give?
A: 50%

Q: What about the “Cell proliferation, change versus control” value ([1]; AFP 0.100 mg/ml, 2 passage) of the same molecule?
A: (+16%)

Q: And the “Cell proliferation (cpm × 103)” value ([1]; AFP 0.100 mg/ml, 2 passage, control 17.8 ± 6.4)?
A: 20.7 ± 0.7 cpm × 103

Q: What about the “Cell proliferation, change versus control” value ([1]; AFP 0.100 mg/ml, 3 passage) of the same molecule?
A: (+7%)

Q: And the “Cell proliferation (cpm × 103)” value ([1]; AFP 0.100 mg/ml, 3 passage, control 16.5 ± 1.5)?
A: 17.7 ± 5.3 cpm × 103

Q: And the “Cell proliferation, change versus control” value ([1]; AFP 0.100 mg/ml, 4 passage)?
A: (+20%)

Q: What about the “Cell proliferation (cpm × 103)” value ([1]; AFP 0.100 mg/ml, 4 passage, control 0.83 ± 0.1) of the same molecule?
A: 1.0 ± 0.08 cpm × 103

Q: And the “Cell proliferation, change versus control” value ([1]; AFP 0.300 mg/ml, 2 passage)?
A: (+44%)

Q: What about the “Cell proliferation (cpm × 103)” value ([1]; AFP 0.300 mg/ml, 2 passage, control 17.8 ± 6.4) of the same molecule?
A: 25.8 ± 4.1 cpm × 103

Q: And the “Cell proliferation, change versus control” value ([1]; AFP 0.300 mg/ml, 3 passage)?
A: (+35%)

Q: And the “Cell proliferation (cpm × 103)” value ([1]; AFP 0.300 mg/ml, 3 passage, control 16.5 ± 1.5)?
A: 22.4 ± 1.4 cpm × 103

Q: What about the “Cell proliferation, change versus control” value ([1]; AFP 0.300 mg/ml, 4 passage) of the same molecule?
A: (+50%)

Q: And the “Cell proliferation (cpm × 103)” value ([1]; AFP 0.300 mg/ml, 4 passage, control 0.83 ± 0.1)?
A: 1.2 ± 0.24 cpm × 103

Q: And the “Results (number of animals - tumor outcome)” value (shortened to “Results”) ([2]; 0.5 mg AFP per injection)?
A: 2-stabilization

Q: And the “Results” value ([2]; 0.5 mg AFP per injection, animals where tumor did not develop)?
A: 3-tumor did not develop

Q: What about the “Results” value ([2]; 0.5 mg AFP per injection, animals with 50% tumor inhibition) of the same molecule?
A: 5-50% inhibition

Q: What about the “Results” value ([2]; 1 mg AFP per injection) of the same molecule?
A: 2-stabilizaton

Q: What about the “Results” value ([2]; 1 mg AFP per injection, animals where tumor did not develop) of the same molecule?
A: 3-tumor did not develop

Q: What about the “Results” value ([2]; 1 mg AFP per injection, animals with 50% tumor inhibition) of the same molecule?
A: 5-50% inhibition

Q: And the “Results” value ([2]; 2 mg AFP per injection)?
A: 2-stabilization

Q: What about the “Results” value ([2]; 2 mg AFP per injection, animals where tumor did not develop) of the same molecule?
A: 3-tumor did not develop

Q: And the “Results” value ([2]; 2 mg AFP per injection, animals with 50% tumor inhibition)?
A: 5-50% inhibition
